In publication PMC4999541 (mBio, 2016):
Read-outs that look alike come from different tables or passages of the source. Numbered stars: 1 amine (or outer) side, 2 acyl side, 3 side chain; on linkers, the order of the positions; unused ones are H or OH. Bridge positions count the residues as written; N and C are the ends. Square brackets hold non-standard residues; d marks the D form. Peptide text beside a SMILES is read from it. Adda = CO[C@@H](Cc1ccccc1)[C@@H](C)/C=C(C)/C=C/[C@H](N[*:1])[C@H](C)C(=O)[*:2]; dAsp(3S-Me) = C[C@H](C(=O)[*:3])[C@@H](N[*:1])C(=O)[*:2]; d(γGlu) = O=C(O)[C@@H](CCC(=O)[*:2])N[*:1]; NMeDha = C=C(NC)C(=O)O

Experiments:
[1] = target: PPZ1FL (Candida albicans, UniProt C4YM68); type: biochemical
[2] = target: T1, PPZ1cat (Candida albicans, UniProt C4YM68); type: biochemical
[3] = tested on: PP1c; type: biochemical, rabbit
[4] = target: T1, PPZ1cat; assay: Phosphatase inhibition assay, pNPP substrate, PPZ1cat; type: biochemical
[5] = target: T2, PP1α (Homo sapiens, UniProt P62136); assay: Phosphatase inhibition assay, pNPP substrate, PP1α; type: biochemical; parameters: made in house; host or cells: E. coli
Target sequence in this assay (P62136 whole entry): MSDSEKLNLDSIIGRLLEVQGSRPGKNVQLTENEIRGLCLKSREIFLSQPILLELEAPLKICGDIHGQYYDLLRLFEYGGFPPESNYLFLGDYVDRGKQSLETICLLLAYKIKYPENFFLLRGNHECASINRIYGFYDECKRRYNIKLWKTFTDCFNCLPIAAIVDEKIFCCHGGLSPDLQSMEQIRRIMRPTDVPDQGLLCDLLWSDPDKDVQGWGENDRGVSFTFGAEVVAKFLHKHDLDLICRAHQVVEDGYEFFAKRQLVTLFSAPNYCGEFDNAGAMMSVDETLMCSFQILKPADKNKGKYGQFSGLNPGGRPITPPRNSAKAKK

[6] = target: T2, PP1α; conditions: cited from earlier work
Target sequence in this assay (P62136 2-330): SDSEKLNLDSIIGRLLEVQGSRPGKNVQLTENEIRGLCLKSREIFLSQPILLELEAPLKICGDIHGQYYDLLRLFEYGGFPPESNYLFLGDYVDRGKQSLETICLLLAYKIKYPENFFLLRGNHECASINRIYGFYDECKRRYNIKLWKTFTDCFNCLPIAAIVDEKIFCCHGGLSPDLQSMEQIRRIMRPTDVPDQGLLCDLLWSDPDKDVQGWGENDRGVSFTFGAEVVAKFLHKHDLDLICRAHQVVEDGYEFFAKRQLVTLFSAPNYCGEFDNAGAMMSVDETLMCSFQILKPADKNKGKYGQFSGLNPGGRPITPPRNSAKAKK

[7] = target: T1, PPZ1cat; assay: Pulldown assay with PPZ1cat; type: binding; conditions: for Less binding in pulldown by PPZ1 compared to PP1α: densitometry of the gel
Protocol: (§1) GADD34_552–567 was purchased. PNUTS394–433 and spinophilin417–602 were purified according to a method described previously ([19], [27]). […]. PP1α7–330 and PPZ1cat were purified by the method described above but retained the His tag. After SEC (20 mM Tris [pH 8.0], 500 mM NaCl, 0.5 mM TCEP, 1 mM MnCl2), 50% (vol/vol) glycerol was added to both PP1α7–330 and PPZ1cat. The final concentrations of the proteins were adjusted to 5 µM. […] of each PP1 regulator was added into 500 µl of PP1α7–330 or PPZ1cat. The mixture was incubated under rocking (4°C) for 60 min to allow for complex formation. A 15-μl bed volume of Ni-NTA resin (GE Healthcare) was added into tubes, and the mixture was incubated at 4°C for 60 min. The beads were pelleted by centrifugation (2000 × g) and washed three times with 500 µl of SEC buffer. Forty microliters of SDS loading buffer was added to the beads, and the samples were boiled at 80°C for 5 min and analyzed on NuPAGE 4 to 12% bis-Tris gels. Gels were stained overnight with SYPRO ruby protein gel stain (Life Technologies) according to the manufacturer’s protocols and scanned using a Typhoon 9410 laser scanner (GE Healthcare) with an excitation wavelength of 457 nm and emission filter of 610 nm following destaining. Densitometry was performed using ImageQuant TL 7.0 software for quantification of the band intensity.

[8] = target: T2, PP1α; conditions: cited from earlier work; remark: listed apart in the source
Target sequence in this assay (P62136 2-330): as above

[9] = target: T3, PP1α7–330 (Homo sapiens, UniProt P62136); assay: Pulldown assay with PP1α; type: binding; conditions: compared to wild-type spinophilin; in words
T3 construct: PP1α7–330 and PPZ1cat were purified by the method described above; made in house; host or cells: E. coli
Protocol: as §1

[10] = target: C. albicans PPZ1 C-terminal catalytic domain (aa 171 to 484), His6 tag removed (Candida albicans) (UniProt Q59U06)
[11] = target: catalytic subunit of rabbit skeletal muscle protein phosphatase 1 (rabbit) (UniProt P62139)
Target sequence in this assay (P62139 whole entry): as the sequence (P62136 whole entry) above

[12] = target: T4, full-length C. albicans PPZ1 (Candida albicans) (UniProt Q59U06)
T4 sequence: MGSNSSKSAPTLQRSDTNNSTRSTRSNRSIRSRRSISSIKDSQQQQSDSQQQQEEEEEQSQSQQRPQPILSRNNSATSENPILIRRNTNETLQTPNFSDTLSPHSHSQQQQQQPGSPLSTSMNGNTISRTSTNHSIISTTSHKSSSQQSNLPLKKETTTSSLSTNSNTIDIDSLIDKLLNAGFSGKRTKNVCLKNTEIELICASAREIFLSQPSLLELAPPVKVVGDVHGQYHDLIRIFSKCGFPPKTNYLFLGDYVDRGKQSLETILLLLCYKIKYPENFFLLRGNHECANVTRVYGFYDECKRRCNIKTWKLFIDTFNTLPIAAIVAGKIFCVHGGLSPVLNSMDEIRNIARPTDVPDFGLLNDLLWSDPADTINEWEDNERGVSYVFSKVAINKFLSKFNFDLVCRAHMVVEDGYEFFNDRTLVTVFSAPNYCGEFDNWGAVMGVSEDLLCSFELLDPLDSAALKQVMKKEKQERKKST

[13] = target: human PP1α(7-330), His tag retained (human) (UniProt P62136)
[14] = target: T2, PP1α; conditions: cited from earlier work; remark: listed apart in the source
Target sequence in this assay (P62136 2-330): as the sequence (P62136 2-330) above

[15] = target: C. albicans PPZ1 C-terminal catalytic domain (aa 171 to 484), His6 tag removed (Candida albicans) (UniProt Q59U06); remark: listed apart in the source
[16] = target: catalytic subunit of rabbit skeletal muscle protein phosphatase 1 (rabbit) (UniProt P62139); remark: listed apart in the source
Target sequence in this assay (P62139 2-330): as the sequence (P62136 2-330) above

[17] = target: T4, full-length C. albicans PPZ1 (Candida albicans); remark: listed apart in the source
[18] = target: T5, C. albicans PPZ1 C-terminal catalytic domain (aa 171 to 484), His6 tag removed (Candida albicans, UniProt Q59U06 169-482); assay: ITC; conditions: both partners purified
T5 construct: also called PPZ1cat; CaPPZ1
T5 sequence: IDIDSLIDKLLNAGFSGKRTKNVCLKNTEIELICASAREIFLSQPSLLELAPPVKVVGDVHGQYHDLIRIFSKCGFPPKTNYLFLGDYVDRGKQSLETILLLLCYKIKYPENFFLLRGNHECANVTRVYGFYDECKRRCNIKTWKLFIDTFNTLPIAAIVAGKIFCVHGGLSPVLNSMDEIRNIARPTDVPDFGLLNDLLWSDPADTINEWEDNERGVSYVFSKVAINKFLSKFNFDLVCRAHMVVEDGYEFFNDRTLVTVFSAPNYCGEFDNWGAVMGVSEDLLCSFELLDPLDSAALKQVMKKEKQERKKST

T1 sequence (C4YM68 entry or part of it): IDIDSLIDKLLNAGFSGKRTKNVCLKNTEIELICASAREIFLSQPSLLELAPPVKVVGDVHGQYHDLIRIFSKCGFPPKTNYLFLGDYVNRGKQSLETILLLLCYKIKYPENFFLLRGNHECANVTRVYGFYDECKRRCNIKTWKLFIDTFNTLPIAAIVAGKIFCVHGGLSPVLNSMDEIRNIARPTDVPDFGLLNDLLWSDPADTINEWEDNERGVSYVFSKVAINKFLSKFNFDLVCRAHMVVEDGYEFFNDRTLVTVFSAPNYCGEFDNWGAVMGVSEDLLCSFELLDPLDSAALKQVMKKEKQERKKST
Sequence of PPZ1FL (C4YM68 entry or part of it): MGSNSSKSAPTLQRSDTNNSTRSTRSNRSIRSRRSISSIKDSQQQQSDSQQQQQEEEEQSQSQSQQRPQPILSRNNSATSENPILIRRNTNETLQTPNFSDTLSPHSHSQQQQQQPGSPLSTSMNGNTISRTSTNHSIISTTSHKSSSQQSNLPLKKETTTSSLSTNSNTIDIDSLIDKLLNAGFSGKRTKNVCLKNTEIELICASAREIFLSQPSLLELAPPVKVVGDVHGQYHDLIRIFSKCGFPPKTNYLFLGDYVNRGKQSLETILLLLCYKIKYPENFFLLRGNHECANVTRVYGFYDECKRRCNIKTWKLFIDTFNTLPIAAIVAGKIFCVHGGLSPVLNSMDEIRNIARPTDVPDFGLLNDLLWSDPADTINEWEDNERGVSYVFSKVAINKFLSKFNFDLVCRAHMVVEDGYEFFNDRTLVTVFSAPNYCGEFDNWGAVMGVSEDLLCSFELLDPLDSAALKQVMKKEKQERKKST
T3 sequence (P62136 7-330): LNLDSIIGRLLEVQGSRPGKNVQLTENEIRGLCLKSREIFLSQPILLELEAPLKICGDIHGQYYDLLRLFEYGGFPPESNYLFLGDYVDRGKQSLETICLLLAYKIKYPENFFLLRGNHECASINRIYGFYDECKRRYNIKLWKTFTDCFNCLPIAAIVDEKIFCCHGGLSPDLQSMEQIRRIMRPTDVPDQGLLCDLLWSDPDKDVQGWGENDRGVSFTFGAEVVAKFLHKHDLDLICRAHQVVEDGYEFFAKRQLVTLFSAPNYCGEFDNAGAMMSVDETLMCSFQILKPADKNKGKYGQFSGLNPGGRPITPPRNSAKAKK
Sequence of human PP1α(7-330), His tag retained (human) (P62136 7-330): as above

Question: With `C=C1C(=O)N[C@H](C)C(=O)N[C@@H](CC(C)C)C(=O)N[C@@H](C(=O)O)[C@H](C)C(=O)N[C@@H](CCCNC(=N)N)C(=O)N[C@@H](/C=C/C(C)=C/[C@H](C)[C@H](Cc2ccccc2)OC)[C@H](C)C(=O)N[C@@H](C(=O)O)CCC(=O)N1C` [MC, microcystin-LR] (R[Adda][d(γGlu)][NMeDha][dA]L[dAsp(3S-Me)]-OH; lactam N-7) as the molecule, how does the IC50 ([1]; read-out: IC50 of MC) read?
Answer: 0.96 nM

Question: And the IC50 ([2]; read-out: IC50 of MC)?
Answer: 0.72 nM

Question: And the IC50 [3]?
Answer: 0.43 nM

Question: And the IC50 [4]?
Answer: 11.8 nM

Question: What about the IC50 [5] of the same molecule?
Answer: 4.4 nM

Question: For GADD34 552-567 (from UniProt O75807), which Kd [6] is on record?
Answer: 62 nM

Question: For “GADD34_552–567: purchased peptide, minimal PP1-binding domain of regulator GADD34 with RVxF and ΦΦ motifs (KARKVRFSEKVTVHFL)”, which “Binding in pulldown by PPZ1cat compared to PP1α” value ([7]; in words) is on record?
Answer: less effectively

Question: With “PNUTS394–433: minimal PP1-binding domain of PP1 regulator PNUTS (RVxF-ΦΦ-Arg) (RKRKTVTWPEEGKLREYFYFELDETERVNVNKIKDFGEAA)” as the molecule, how does the “Less binding in pulldown by PPZ1 compared to PP1α” value [7] read?
Answer: ~ 85%

Question: For PNUTS 394-433 (from UniProt Q96QC0), which Kd [8] is on record?
Answer: 9.3 nM

Question: Which “Amount of spinophilin variant pulled down by PP1α” value [9] does the source give for “SpinoR469D: spinophilin417–602 variant with Arg motif mutation R469D” here?
Answer: reduces the amount of spinophilin pulled down

Question: With “SpinoR469E: spinophilin417–602 variant with Arg motif mutation R469E” as the molecule, how does the “Amount of spinophilin variant pulled down by PP1α” value [9] read?
Answer: reduces the amount of spinophilin pulled down

Question: With microcystin-LR (peptide) as the molecule, how does the inhibition of phosphatase activity, 32P-labeled MLC20 (pMLC) substrate, IC50 [10] read?
Answer: 0.72 nM

Question: And the inhibition of phosphatase activity, pNPP substrate, IC50 [10]?
Answer: 11.8 nM

Question: And the inhibition of phosphatase activity, 32P-labeled MLC20 (pMLC) substrate, IC50 [11]?
Answer: 0.43 nM

Question: And the inhibition of phosphatase activity, 32P-labeled MLC20 (pMLC) substrate, IC50 [12]?
Answer: 0.96 nM

Question: What about the inhibition of phosphatase activity, pNPP substrate, IC50 [13] of the same molecule?
Answer: 4.4 nM

Question: Which “Less binding in pulldown by PPZ1 compared to PP1α” value [7] does the source give for “spinophilin417–602: minimal PP1-binding domain of PP1 regulator spinophilin” here?
Answer: ~ 85%

Question: With “spinophilin 417-602 (from UniProt O35274)” as the molecule, how does the Kd [14] read?
Answer: 8.7 nM

B1: recombinant 6×His-tagged inhibitor-2 (natural protein)
chain: MAASTASHRPIKGILKNKTSTTSSMVASAEQPRGNVDEELSKKSQKWDEMNILATYHPADKDYGLMKIDEPSTPYHSMMGDDEDACSDTEATEAMAPDILARKLAAAEGLEPKYRIQEQESSGEEDSDLSPEEREKKRQFEMKRKLHYNEGLNIKLARQLISKDLHDDDEDEEMLETADGESMNTEESNQGSTPSDQQQNKLRSS
Question: What does the source list for B1?
Answer: inhibition of phosphatase activity by increasing concentrations of I-2, IC50 [15]: 7 nM; inhibition of phosphatase activity by increasing concentrations of I-2, IC50 [16]: 12 nM; inhibition of phosphatase activity by increasing concentrations of I-2, IC50 [17]: 278 nM

Question: For KARKVRFSEKVTVHFL (peptide, UniProt O75807 552-567, looked up, also called G34) [GADD34(552-567) peptide], which Kd [18] is on record?
Answer: 1150 ± 90 nM

B2: I-2: inhibitor-2, a specific protein inhibitor of PP1; recombinant 6×His-tagged (protein)
chain: AASTASHRPIKGILKNKTSTTSSMVASAEQPRGNVDEELSKKSQKWDEMNILATYHPADKDYGLMKIDEPSTPYHSMMGDDEDACSDTEATEAMAPDILARKLAAAEGLEPKYRIQEQESSGEEDSDLSPEEREKKRQFEMKRKLHYNEGLNIKLARQLISKDLHDDDEDEEMLETADGESMNTEESNQGSTPSDQQQNKLRSS
Question: For B2, which IC50 ([1]; PPZ1FL, includes N-terminal IDP domain, read-out: IC50 of I-2) is on record?
Answer: 278 nM

Question: And the IC50 ([2]; PPZ1cat, recombinant I-2, read-out: IC50 of I-2)?
Answer: 7 nM
